Patent EP4674437A1
pEC50: −log10 of the molar value.

Experiments:
[1] = target: Human DLL3 full-length protein (human); assay: FACS on H1184 cells
[2] = target: Human DLL3 full-length protein (human); assay: cell-based or functional assay
[3] = target: Cynomolgus monkey DLL3 full-length protein (cynomolgus monkey); assay: FACS on cynoDLL3/CHO-s cells

pEC50 [1]: 8.40
Emax (geometric MFI) [1]: 1620
pEC50 [3]: 8.47
Emax (geometric MFI) [3]: 963
Substance: BI-764532 (antibody)
IC50 (nM), cell killing caused by endocytosis of antibody (DT3C, DMS53/DLL3 cells) [2]: 3.27 nM
Imax, cell killing caused by endocytosis of antibody (DT3C, DMS53/DLL3 cells) [2]: 86.5
